{
  "source": "paper PMC7439702",
  "target": "AbmU (Streptomyces koyangensis SCSIO 5802)",
  "assay": "crystal structure",
  "data": [
    {"substance": "AbmU (enzyme)", "values": [
      {"measurement": "stoichiometry N", "result": 2}
    ]}
  ]
}
